Data as given in publication PMC11109196 (Nature Communications, 2024).

Experiments:
MW959 gp120 = target: T1, MW959 gp120 (HIV-1 subtype C, 93MW959 (isolate 959 …, strain)); assay: flow cytometry on cells; blocking format: HmAb64 added to biotinylated gp120 in the staining of primary human CD4+ T cells; loss of gp120 staining read out (2, 4, 8 ug HmAb64 with 2 ug ADA gp120 in panel b); details: both partners purified
T1 construct: also called MW959 (C)

CM244 gp120 = target: T2, CM244 gp120 (HIV-1 isolate CM244 (CRF01_AE; printed …, UniProt Q4QX31, strain); assay: as above; details: both partners purified
T2 construct: also called CM244 (AE); CM224

AD8 gp120 = target: T3, AD8 gp120 (HIV-1 subtype B, AD8, UniProt O40222, strain); assay: as above; details: both partners purified
T3 construct: also called AD8 (B)

SF162 gp120 = target: T4, SF162 gp120 (HIV-1 (SF162), UniProt P19550); assay: as above; details: both partners purified
T4 construct: also called SF162 (B)

[1] = target: gp120 A2 (clade A, 92UG037.8) (HIV-1 isolate 92UG037.8 (clade A), UniProt Q70200, strain); assay: ELISA; HmAb64 on gp120, gp120-Core or their D368R mutant protein, as previously described; details: both partners purified
[2] = target: gp120 Czm (clade C, 96ZM652) (HIV-1 subtype C, named 96ZM652; entry …, strain); assay: as above; details: both partners purified
[3] = target: T5, wild-type gp120 Env protein, HIV-1 isolate JR-FL (HIV-1 isolate JR-FL, UniProt Q75760, strain); assay: as above; details: both partners purified
T5 construct: also called JR-FL gp120

[4] = target: T6, wild-type gp120 Env protein, HIV-1 isolate YU2 (HIV-1 isolate YU2, UniProt P35961); assay: as above; details: both partners purified
T6 construct: also called YU2 gp120

[5] = target: biotinylated gp120 of HIV-1 SF162 (HIV-1 isolate SF162, UniProt P19550, strain); assay: flow cytometry on cells; HmAb64 added to biotinylated gp120 and read by the loss of gp120 staining of primary CD4+ T cells; details: both partners purified
[6] = target: T7, biotinylated gp120 of HIV-1 CM244 (HIV-1 isolate CM244 (CRF01_AE; printed …, UniProt Q4QX31, strain); assay: as above; details: both partners purified
T7 construct: also called CM224 (as printed in the methods)

[7] = target: T8, HIV-1 SF162 Env on infected human CD4+ T cells (HIV-1 isolate SF162, UniProt P19550, strain); assay: flow cytometry on cells; primary human CD4+ T cells infected with HIV SF162 for 3 days, stained with HmAb64 (2 ug), goat anti-human-PE; details: one partner purified
T8 construct: also called HIV-1 SF162 infected CD4+ T cells; source: primary human CD4+ T cells infected with HIV SF162, on the cell surface

A244 gp120 = A244 gp120 (HIV-1 isolate A244); assay: SPR; Biacore 3000, CM4 or CM5 chip; gp120 or BG505-SOSIP immobilised by amine coupling to about 750 RU; HBS pH 7.4, 3 mM EDTA, 0.005% Tween-20, 0.05% carboxymethyl-dextran; 25 ul/min, 25 C; details: both partners purified

Measured: binding result

B1: HmAb64 (antibody, V domains shown)
VH: QVQLVQSGAEVKKPGASVKVSCKASGYTFTSYDITWVRQAPGQGLEWMGWISAYNGDTNYAQRLQGRVTMTTDTSTSTAYMELRSLRSDDTAVYYCARAKHTVLVTAMRWFDPWGQGTLVTVSS
VL: DIQMTQSPSSLSASVGDRVTITCRASQSISNYLNWYQQKPGKAPKLLISATSSLQSGVPSRFSGSGSGTDFTLTISSLQPDDFATYYCQQSYSTPWTFGQGTKLEIK
notes: also called HmAb64 mAb; source: Freestyle 293F cells, transfected, purified (Protein A HP columns)
binds: MW959 gp120 | CM244 gp120 | AD8 gp120 | SF162 gp120

B2: HmAb64 (antibody, V domains shown)
VH: B1 VH
VL: B1 VL
notes: also called human IgG (HmAb64); clone #64; source: Freestyle 293F cells, transfected (mAb64-HC/pJW4303 and mAb64-KC/pJW4303), purified from supernatant (Protein A)
not listed: MW959 gp120 | CM244 gp120 | AD8 gp120 | SF162 gp120
binds: all other assays above
